The data set addresses T1, His-SPA (Storage Protein Activator, bZIP) (UniProt A0A9R1IS55 1-409).
T1 sequence: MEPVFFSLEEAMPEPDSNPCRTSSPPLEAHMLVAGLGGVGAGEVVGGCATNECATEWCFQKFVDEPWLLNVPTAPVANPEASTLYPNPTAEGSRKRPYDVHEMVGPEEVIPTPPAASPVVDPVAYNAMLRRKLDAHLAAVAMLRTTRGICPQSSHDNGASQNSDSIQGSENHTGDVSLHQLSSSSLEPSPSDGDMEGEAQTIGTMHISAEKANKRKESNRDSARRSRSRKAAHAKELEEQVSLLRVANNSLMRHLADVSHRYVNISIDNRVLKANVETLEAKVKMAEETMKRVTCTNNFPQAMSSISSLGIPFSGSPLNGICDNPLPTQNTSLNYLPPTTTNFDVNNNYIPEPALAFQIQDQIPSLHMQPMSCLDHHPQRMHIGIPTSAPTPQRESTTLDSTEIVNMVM
Briefly: EMSA; 10 mM Tris pH 7.5, 100 mM KCl, 2 mM DTT, 2 mM EDTA, 10% glycerol, 0.05% nonyl phenoxypolyethoxylethanol, 0.5 mM PMSF, 100 ng/uL poly(dI.dC), 250 ng/uL fish sperm DNA; 20 fmol probe, 560 ng-4 ug protein in 20 uL; 30 min, room temperature; gel at 4 C. Particulars: protein: recombinant; tags: His tag (pDEST17); chain copies: 2; label: 3' biotin on each strand; blunt.

Consider three molecules from paper PMC4228979, “Conserved cis-regulatory modules in promoters of genes encoding wheat high-molecular-weight glutenin subunits”.

B1: glm1 (dsDNA)
DNA 1: ATAGATGTTTTTATTAATTGGATAG
DNA 2: CTATCCAATTAATAAAAACATCTAT
With B1, the binding result is “no binding”.

B2: GLM2 (-626) (dsDNA)
DNA 1: ATAGATATTGTGAGTCAGCATGGAT
DNA 2: ATCCATGCTGACTCACAATATCTAT
On to B2, for which the binding result is “binds”.

B3: mutated G-box (dsDNA)
DNA 1: GCCCATTCTCTGGCTTTAGCAGACC
DNA 2: GGTCTGCTAAAGCCAGAGAATGGGC
Consider B3, for which the binding result is recorded as “no binding”.
